From patent US20240024477A1

Biological target: HLA-E bound RL9 presented on cells with their own HLA-E (RL9 pulsed autologous B cells (human; HIV-1) (UniProt P13747)
Experiment: cell-based or functional assay

irrelevant TCR specific for HLAA*0201-NY-ESO-1157-165 (…) (IG4), transduced into CD8 T cells
reduction of % p24+ cells, HIV-1 NL4.3-infected primary CD4+ T cells, E:T 5:1: 23.5%
